Experimental data taken from patent publication US20210346432A1.

Tests used:
[1] = biological target: T1, ET140-p25 (human); assay: peptide ELISA on streptavidin plate, antibody 1 ug/mL
T1 sequence (peptide, N-terminal biotin): SGSGLRCSSNTPPLTCQRY

[2] = biological target: T2, ET140-p26 (human); assay: as above
T2 sequence (peptide, N-terminal biotin): SGSGRCSSNTPPLTCQRYC

B1: ET140-153 mIgG1 (antibody, V domains shown)
VH: QVQLVQSGAEVKKPGSSVKVSCKASGGTFSSYAISWVRQAPGQGLEWMGRIIPILGIANYAQKFQGRVTITADKSTSTAYMELSSLRSEDTAVYYCARGGYYSHDMWSEDWGQGTLVTVSS
VL: LPVLTQPPSASGTPGQRVTISCSGRSSNIGSNSVNWYRQLPGAAPKLLIYSNNQRPPGVPVRFSGSKSGTSASLAISGLQSEDEATYYCATWDDNLNVHYVFGTGTKVTVLG
Work on B1 yielded an A450 [1] of 0.583 and an A450 [2] of 0.225.
